This note sets out measurements from patent US20140235553.

Series [1] relates to NTD-αB crystallin fusion protein.
In series [2] the test system is NTD-αA crystallin fusion protein.

As to lysozyme, the “CLA: suppression of chemically-induced aggregation of substrate protein” value is reported as “These proteins also displayed CLA, as evidenced by suppressing the chemically-induced aggregation of substrate proteins such as lysozyme” in series [1] and “These proteins also displayed CLA, as evidenced by suppressing the chemically-induced aggregation of substrate proteins such as lysozyme” in series [2].
